Positions count from the first letter of the chain named. No end group written: not given here.
T1: human Factor XIIa (human, UniProt P00748)
T1 sequence 1: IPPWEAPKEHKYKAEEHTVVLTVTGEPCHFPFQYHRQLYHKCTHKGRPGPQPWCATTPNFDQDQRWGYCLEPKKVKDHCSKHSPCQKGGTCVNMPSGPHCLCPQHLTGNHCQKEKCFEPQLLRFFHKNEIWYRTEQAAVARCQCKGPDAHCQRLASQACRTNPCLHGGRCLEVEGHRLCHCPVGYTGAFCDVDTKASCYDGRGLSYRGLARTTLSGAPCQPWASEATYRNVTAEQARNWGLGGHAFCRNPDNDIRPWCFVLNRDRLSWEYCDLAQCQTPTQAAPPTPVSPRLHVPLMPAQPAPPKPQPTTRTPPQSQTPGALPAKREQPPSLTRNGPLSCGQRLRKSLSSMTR
T1 sequence 2: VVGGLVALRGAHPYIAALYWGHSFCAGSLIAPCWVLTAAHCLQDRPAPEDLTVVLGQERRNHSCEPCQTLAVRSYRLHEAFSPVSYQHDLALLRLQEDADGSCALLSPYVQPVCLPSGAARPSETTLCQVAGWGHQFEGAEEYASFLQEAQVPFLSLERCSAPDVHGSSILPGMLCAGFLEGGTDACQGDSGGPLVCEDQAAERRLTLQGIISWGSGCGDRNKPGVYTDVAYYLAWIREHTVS

B1: IV-32B (designed binder)
chain: VREVCSEQAEPGPCKALMKRWYFDVTEGKCAPFYYGGCYGNRNNFDTEEYCAAVCGSA
B2: APPI, Alzheimer's amyloid β-protein precursor inhibitor (other)
chain: VREVCSEQAETGPCRAMISRWYFDVTEGKCAPFFYGGCGGNRNNFDTEEYCMAVCGSA
modifications: not fully specified (bridges); ends and bridges not checked
B3: IV-49C (designed binder)
chain: B1 chain with K15R, Y34I
B4: TF7I-C (designed binder)
chain: B1 chain with K15R, M18I, K19L, Y34F
modifications: ends and bridges not checked; cysteine pairing not given here
B5: IV-54C (designed binder)
chain: B1 chain with K15R, Y34V

Columns and labels:
[1] = molecular target: TF-FVIIa complex in the PT assay (full length TF on 293 cell membranes with the Factor VII/VIIa of normal … (human, UniProt P08709)); test: cell-based or functional assay
[2] = molecular target: human activated protein C (human, UniProt P04070); test: chromogenic enzyme inhibition assay, apparent Ki*
human thrombin = human thrombin (human, UniProt P00734); test: chromogenic enzyme inhibition assay, apparent Ki*
human Factor Xa = human Factor Xa (human, UniProt P00742); test: chromogenic enzyme inhibition assay, apparent Ki*
human Factor XIIa = molecular target: T1, human Factor XIIa; test: chromogenic enzyme inhibition assay, apparent Ki*
human plasmin = human plasmin (human, UniProt P00747); test: chromogenic enzyme inhibition assay (plasmin 15 nM, S2251), apparent Ki*
Description: (§1) Aliquots (25 μL) from each well of a microtiter plate containing the serially diluted inhibitors were transferred into new microtiter plates, each containing a different protease (100 μL) in the appropriate buffer. The proteases tested (protease concentration, buffer, substrate) were FVIIa (10 nM, Buffer A, 0.7 mM S2366), FXIa (1.0 nM, Buffer B containing 1 mg/ml BSA, 0.7 mM S2366), plasma kallikrein (3.5 nM, Buffer B, 0.5 mM S2302), and plasmin (15 nM, Buffer B, 1 mM S2251). Buffer A contains 50 mM Tris, pH 7.5, 100 mM NaCl, 10 mM CaCl_2, 0.5% BSA, 60 nM TF_1-243, and 1 mM CHAPS (Sigma). Buffer B contains 50 mM Tris, pH 7.5, 100 mM NaCl, 2 mM CaCl_2 and 0.005% Triton X-100.

human plasma kallikrein = human plasma kallikrein (human, UniProt P03952); test: chromogenic enzyme inhibition assay, apparent Ki* (value in FIG. 4)
Description: as §1

Binder | fold prolongation of clotting time, PT assay in normal human plasma [1] | binding result [2] | binding result (human Factor XIIa) | further results
B1 | 1.4 fold prolongation at 40 µM inhibitor | – | – | –
B2 | 1.5 fold prolongation at 40 µM inhibitor | no binding (tested: >10 µM) | no binding (tested: >10 µM) | Ki [2]: > 10 µM; Ki (human thrombin): > 10 µM; binding result (human thrombin): no binding (tested: >10 µM); Ki (human Factor Xa): > 10 µM; binding result (human Factor Xa): no binding (tested: >10 µM); Ki (human Factor XIIa): > 10 µM
B3 | 2.5 fold prolongation at 40 µM inhibitor | – | – | –
B4 | – | no binding (tested: >10 µM) | no binding (tested: >10 µM) | Ki (human plasmin): 0.04 µM; binding result (human plasma kallikrein): binds
B5 | 2.1 fold prolongation at 40 µM inhibitor | – | – | –
